The target in the test is T1, HA-SPOP, wild type (UniProt O43791 1-374).
T1 construct: SPOP (Speckle-type POZ protein); also called HA-SPOP WT; pcDNA3-HA-SPOP; source: 293T, transfected, in lysate; also purified from transfected 293T cells using HA-tag beads
In words: pull-down; GST pull-down: purified GST-PrLZ and HA-SPOP or His-SPOP incubated 3 h at 4 °C, washed with RIPA buffer, western blot (Fig. 2c: antibody against His). The conditions noted are these: both partners purified. Background: Immunoblotting shows a protein as a band on a membrane.

T1 sequence (O43791 whole entry): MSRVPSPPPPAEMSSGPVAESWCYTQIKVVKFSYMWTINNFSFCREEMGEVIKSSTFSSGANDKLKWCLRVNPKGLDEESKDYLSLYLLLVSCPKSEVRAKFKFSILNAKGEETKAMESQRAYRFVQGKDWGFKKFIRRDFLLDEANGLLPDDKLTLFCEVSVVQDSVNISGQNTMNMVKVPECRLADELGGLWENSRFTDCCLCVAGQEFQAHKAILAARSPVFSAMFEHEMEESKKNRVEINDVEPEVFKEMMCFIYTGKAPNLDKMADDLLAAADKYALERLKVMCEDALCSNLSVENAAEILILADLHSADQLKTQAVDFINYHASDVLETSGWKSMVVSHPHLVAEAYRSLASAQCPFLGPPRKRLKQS

B1: GST-PrLZ, wild type (bacterial) (natural protein, UniProt P55327 1-224, looked up)
chain: MDCREMDLYEDYQSPFDFDAGVNKSYLYLSPSGNSSPPGSPTLQKFGLLRTDPVPEEGEDVAATISATETLSEEEQEELRRELAKVEEEIQTLSQVLAAKEKHLAEIKRKLGINSLQELKQNIAKGWQDVTATSAYKKTSETLSQAGQKASAAFSSVGSVITKKLEDVKNSPTFKSFEEKVENLKSKVGGTKPAGGDFGEVLNSAANASATTTEPLPEKTQESL
notes: Prostate Leucine Zipper (PrLZ); also called GST-PrLZ WT; pGEX-4T-1-GST-PrLZ; source: E. coli BL21, purified (Glutathione Sepharose 4B)
On to B1, for which the binding result is recorded as “binds”.

Source of the values: publication PMC9345960, “ERK1/2 inhibits Cullin 3/SPOP-mediated PrLZ ubiquitination and degradation to modulate prostate cancer progression” (Cell Death and Differentiation, 2022).
